Assay results: patent US12467929
Values belong to the substance of their own block, whether it stands above or below them.

Legend:
[1] = biological target: recombinant UBE3A protein (Homo sapiens (Human)) (UniProt Q05086); assay: 2-step Simoa; capture GTX; UBE3A 0.488 ng/ml
[2] = biological target: recombinant UBE3A protein (Homo sapiens (Human)) (UniProt Q05086); assay: 2-step Simoa; capture GTX; UBE3A 1.95 ng/ml
[3] = biological target: recombinant UBE3A protein (Homo sapiens (Human)) (UniProt Q05086); assay: 3-step Simoa; capture GTX; UBE3A 500 ng/ml
[4] = biological target: recombinant UBE3A protein (Homo sapiens (Human)) (UniProt Q05086); assay: 2-step Simoa; capture GTX; UBE3A 0.122 ng/ml
[5] = biological target: recombinant UBE3A protein (Homo sapiens (Human)) (UniProt Q05086); assay: 2-step Simoa; capture GTX; UBE3A 7.81 ng/ml
[6] = biological target: recombinant UBE3A protein (Homo sapiens (Human)) (UniProt Q05086); assay: Simoa; capture GTX; 3E5 0.1 ug/ml; UBE3A 0.160 ng/ml
[7] = biological target: recombinant UBE3A protein (Homo sapiens (Human)) (UniProt Q05086); assay: Simoa head-to-head, Table 11; capture GTX; UBE3A 20.0 ng/ml
[8] = biological target: recombinant UBE3A protein (Homo sapiens (Human)) (UniProt Q05086); assay: Simoa; capture GTX, no helper beads; 3E5 0.1 ug/ml; UBE3A 20.0 ng/ml
[9] = biological target: recombinant UBE3A protein (Homo sapiens (Human)) (UniProt Q05086); assay: Simoa; capture GTX; SBG 100 pm; UBE3A 4.00 ng/ml
[10] = biological target: recombinant UBE3A protein (Homo sapiens (Human)) (UniProt Q05086); assay: Simoa; capture GTX; SBG 100 pm; UBE3A 0.800 ng/ml
[11] = biological target: recombinant UBE3A protein (Homo sapiens (Human)) (UniProt Q05086); assay: Simoa; capture GTX + helper beads; 3E5 0.2 ug/ml; UBE3A 0.00640 ng/ml
[12] = biological target: recombinant UBE3A protein (Homo sapiens (Human)) (UniProt Q05086); assay: 3-step Simoa, 120 min bead step; capture GTX; UBE3A 0.0320 ng/ml
[13] = biological target: recombinant UBE3A protein (Homo sapiens (Human)) (UniProt Q05086); assay: 3-step Simoa, 120 min bead step; capture GTX; UBE3A 100 ng/ml
[14] = biological target: recombinant UBE3A protein (Homo sapiens (Human)) (UniProt Q05086); assay: Simoa head-to-head, Table 11; capture MS 2F6; UBE3A 20.0 ng/ml
[15] = biological target: recombinant UBE3A protein (Homo sapiens (Human)) (UniProt Q05086); assay: Simoa head-to-head, Table 10; capture MS 2F6; UBE3A 20.0 ng/ml
[16] = biological target: recombinant UBE3A protein (Homo sapiens (Human)) (UniProt Q05086); assay: Simoa; capture GTX + helper beads; 3E5 0.4 ug/ml; UBE3A 4.00 ng/ml
[17] = biological target: recombinant UBE3A protein (Homo sapiens (Human)) (UniProt Q05086); assay: Simoa; capture GTX; SBG 100 pm; UBE3A 0.0320 ng/ml
[18] = biological target: recombinant UBE3A protein (Homo sapiens (Human)) (UniProt Q05086); assay: Simoa; capture GTX; 3E5 0.2 ug/ml; UBE3A 20.0 ng/ml
[19] = biological target: recombinant UBE3A protein (Homo sapiens (Human)) (UniProt Q05086); assay: Simoa head-to-head, Table 11; capture GTX; UBE3A 100 ng/ml
[20] = biological target: recombinant UBE3A protein (Homo sapiens (Human)) (UniProt Q05086); assay: Simoa; capture GTX, no helper beads; 3E5 0.1 ug/ml; UBE3A 0.00640 ng/ml
[21] = biological target: recombinant UBE3A protein (Homo sapiens (Human)) (UniProt Q05086); assay: Simoa; capture GTX; SBG 100 pm; UBE3A 0.160 ng/ml

UniProt Q05086, sequence (Q05086 whole entry): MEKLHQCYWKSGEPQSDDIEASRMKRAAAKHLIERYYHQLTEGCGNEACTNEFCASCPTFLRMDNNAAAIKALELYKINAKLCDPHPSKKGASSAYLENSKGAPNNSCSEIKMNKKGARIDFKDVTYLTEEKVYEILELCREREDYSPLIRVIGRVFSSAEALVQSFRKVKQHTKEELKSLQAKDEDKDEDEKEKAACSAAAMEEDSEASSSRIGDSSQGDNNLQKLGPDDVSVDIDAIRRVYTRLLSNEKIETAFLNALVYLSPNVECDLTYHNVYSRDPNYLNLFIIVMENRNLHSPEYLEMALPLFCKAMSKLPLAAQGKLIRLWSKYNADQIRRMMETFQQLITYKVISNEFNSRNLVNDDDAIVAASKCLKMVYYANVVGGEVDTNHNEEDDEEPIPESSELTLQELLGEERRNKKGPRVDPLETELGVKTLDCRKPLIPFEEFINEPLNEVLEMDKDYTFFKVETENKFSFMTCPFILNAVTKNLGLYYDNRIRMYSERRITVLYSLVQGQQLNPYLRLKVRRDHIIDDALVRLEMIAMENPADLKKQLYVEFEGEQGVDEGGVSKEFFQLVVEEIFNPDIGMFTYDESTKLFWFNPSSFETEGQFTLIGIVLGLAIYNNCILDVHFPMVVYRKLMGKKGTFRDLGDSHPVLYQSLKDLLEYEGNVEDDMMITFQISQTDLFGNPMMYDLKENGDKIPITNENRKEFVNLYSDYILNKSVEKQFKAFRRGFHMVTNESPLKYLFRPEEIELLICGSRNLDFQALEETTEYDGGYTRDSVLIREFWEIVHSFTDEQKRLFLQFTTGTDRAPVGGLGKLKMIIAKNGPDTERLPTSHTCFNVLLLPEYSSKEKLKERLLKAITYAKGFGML

AEB1 [1]: 0.0073 | AEB2 [1]: 0.0069 | Ave AEB [1]: 0.0071 | Signal to Background [1]: 2.16 | AEB1 [2]: 0.018 | AEB2 [2]: 0.0187 | Ave AEB [2]: 0.0184 | Signal to Background [2]: 5.62 | AEB1 [3]: 0.229 | AEB2 [3]: 0.218 | Ave AEB [3]: 0.224 | Signal to Background [3]: 102 | AEB1 [4]: 0.004 | AEB2 [4]: 0.0037 | Ave AEB [4]: 0.0039 | Signal to Background [4]: 1.18 | AEB1 [5]: 0.058 | AEB2 [5]: 0.0481 | Ave AEB [5]: 0.053 | Signal to Background [5]: 16.2
Substance: NB500-240 (Novus) (antibody)

AEB1 [6]: 0.0828 | AEB2 [6]: 0.0846 | Average AEB [6]: 0.0837 | Signal to Background [6]: 4.34 | AEB1 [7]: 0.78 | AEB2 [7]: 0.821 | Ave AEB [7]: 0.8 | Signal to Background [7]: 97.8 | AEB1 [8]: 3.57 | AEB2 [8]: 3.21 | Average AEB [8]: 3.39 | Signal to Background [8]: 592 | AEB1 [9]: 0.739 | AEB2 [9]: 0.78 | AEB3 [9]: 0.707 | Average AEB [9]: 0.742 | Signal to Background [9]: 88.5 | AEB1 [10]: 0.21 | AEB2 [10]: 0.214 | AEB3 [10]: 0.211 | Average AEB [10]: 0.212 | Signal to Background [10]: 25.3 | AEB1 [11]: 0.0133 | AEB2 [11]: 0.0127 | Average AEB [11]: 0.013 | Signal to Background [11]: 1.34 | AEB1 [12]: 0.0115 | AEB2 [12]: 0.0095 | Ave AEB [12]: 0.0105 | Signal to Background [12]: 6.15 | AEB1 [13]: 7.86 | AEB2 [13]: 8.12 | Ave AEB [13]: 7.99 | Signal to Background [13]: 4690 | AEB1 [14]: 0.352 | AEB2 [14]: 0.348 | Ave AEB [14]: 0.35 | Signal to Background [14]: 92.5 | AEB1 [15]: 0.514 | AEB2 [15]: 0.552 | Ave AEB [15]: 0.533 | Signal to Background [15]: 39.4 | AEB1 [16]: 1.16 | AEB2 [16]: 1.12 | Average AEB [16]: 1.14 | Signal to Background [16]: 58.5 | AEB1 [17]: 0.0199 | AEB2 [17]: 0.0201 | AEB3 [17]: 0.0192 | Average AEB [17]: 0.0197 | Signal to Background [17]: 2.35 | AEB1 [18]: 6.38 | AEB2 [18]: 6.95 | AEB3 [18]: 6.77 | Average AEB [18]: 6.7 | Signal to Background [18]: 171 | AEB1 [19]: 3.35 | AEB2 [19]: 3.51 | Ave AEB [19]: 3.43 | Signal to Background [19]: 419 | AEB1 [20]: 0.0087 | AEB2 [20]: 0.0092 | Average AEB [20]: 0.0089 | Signal to Background [20]: 1.56 | AEB1 [21]: 0.0582 | AEB2 [21]: 0.0586 | AEB3 [21]: 0.0574 | Average AEB [21]: 0.0581 | Signal to Background [21]: 6.93
Substance: anti-UBE3A antibody 3E5 (SAB1404508-100 ug, Millipore-Sigma)
